Reference: paper PMC3594540

Assays:
[1] = molecular target: murine Gαq (residues 7–359), biotinylated for bead binding (murine) (UniProt P21279); assay: flow cytometry protein interaction assay
Gαq-ΔN (murine) = Gαq-ΔN (murine) (UniProt P21279); assay: flow cytometry protein interaction assay
PLCβ3-Δ892 (human) = PLCβ3-Δ892 (human) (UniProt Q01970)
Gαq D296A P298D (murine) = Gαq D296A P298D (murine) (UniProt P21279); assay: flow cytometry protein interaction assay
Gαq K311A (murine) = Gαq K311A (murine) (UniProt P21279); assay: flow cytometry protein interaction assay
PLCβ3-Δ892 T652E (human) = PLCβ3-Δ892 T652E (human) (UniProt Q01970)

Sequence of Gαq-ΔN (murine) (P21279 37-359, stated change not applied): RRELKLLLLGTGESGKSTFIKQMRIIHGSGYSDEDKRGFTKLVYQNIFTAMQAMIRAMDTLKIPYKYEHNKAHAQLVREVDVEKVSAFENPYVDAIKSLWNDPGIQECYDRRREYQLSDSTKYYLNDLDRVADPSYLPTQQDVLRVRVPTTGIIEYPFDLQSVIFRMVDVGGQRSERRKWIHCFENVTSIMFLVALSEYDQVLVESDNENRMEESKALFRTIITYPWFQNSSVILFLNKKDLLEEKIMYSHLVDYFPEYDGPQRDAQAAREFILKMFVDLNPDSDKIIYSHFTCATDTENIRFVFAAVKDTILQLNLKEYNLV
Sequence of Gαq K311A (murine) (P21279 7-359 K311A): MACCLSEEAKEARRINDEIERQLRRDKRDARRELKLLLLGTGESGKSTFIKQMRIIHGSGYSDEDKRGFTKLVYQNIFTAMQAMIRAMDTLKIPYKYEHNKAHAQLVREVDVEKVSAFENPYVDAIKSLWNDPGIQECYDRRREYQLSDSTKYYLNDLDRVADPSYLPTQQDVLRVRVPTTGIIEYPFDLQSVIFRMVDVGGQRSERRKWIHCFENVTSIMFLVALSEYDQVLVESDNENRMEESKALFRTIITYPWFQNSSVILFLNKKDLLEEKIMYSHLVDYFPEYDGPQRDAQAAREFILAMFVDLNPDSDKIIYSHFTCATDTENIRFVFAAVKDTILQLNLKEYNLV
Sequence of murine Gαq (residues 7–359), biotinylated for bead binding (murine) (P21279 7-359): as the sequence (P21279 7-359 K311A) above, with A305K counted along it
Sequence of Gαq D296A P298D (murine) (P21279 7-359 D296A/P298D): as the sequence (P21279 7-359 K311A) above, with D290A, P292D, A305K counted along it
Sequence of murine Gαq (residues 7–359), biotinylated for bead binding (P21279 7-359): as the sequence (P21279 7-359 K311A) above, with A305K counted along it
Sequence of Gαq-ΔN (P21279 37-359, stated change not applied): as the sequence (P21279 37-359, stated change not applied) above

| Substance | Ki [1] [nM] | EC50 of Gαq-stimulated PIP2 hydrolysis ([3H]-IP3 release from liposomes) (PLCβ3-Δ892 (human)) [nM] | further results |
| --- | --- | --- | --- |
| PLCβ3 L876A EEE (from UniProt Q01970) (enzyme) | 26 | – | Ki (Gαq-ΔN (murine)): 42 nM |
| PLCβ3-Δ882-937 L876A (from UniProt Q01970 10-1234) (enzyme) | 12 | – | – |
| Gαq-ΔN (from UniProt P21279 37-359) (domain or fragment) | – | 59 | – |
| PLCβ3 I1129E V1133E I1136E triple mutant (from UniProt Q01970) (enzyme) | 93 | – | Ki (Gαq-ΔN (murine)): 78 nM |
| PLCβ3-Δ882-937 (from UniProt Q01970 10-1234) (enzyme) | 230 | – | – |
| PLCβ3-Δ892 T652E (from UniProt Q01970 10-892) (domain or fragment) | 250 | – | – |
| PLCβ3 T652E (from UniProt Q01970) (enzyme) | 160 | – | – |
| PLCβ3 L876A (from UniProt Q01970 10-1234) (enzyme) | 20 | – | Ki (Gαq D296A P298D (murine)): 12 nM; Ki (Gαq K311A (murine)): 16 nM; Ki (Gαq-ΔN (murine)): 24 nM |
| PLCβ3-Δ892 (from UniProt Q01970 10-892) (domain or fragment) | 490 | – | Ki (Gαq D296A P298D (murine)): 420 nM; Ki (Gαq K311A (murine)): 380 nM; Ki (Gαq-ΔN (murine)): 490 nM |
| Gαq C9S C10S (from UniProt P21279 7-359) (natural protein) | – | 150 | – |
| Gαq D296A P298D (from UniProt P21279 7-359) (natural protein) | – | 540 | – |
| human PLCβ3 (residues 10–1234) (from UniProt Q01970 10-1234) (enzyme) | – | – | Ki (Gαq K311A (murine)): 260 nM |
| AF488-labeled PLCβ3-Δ892 R872A L876A L879A (from UniProt Q01970 10-892) (domain or fragment) | – | – | Kd [1]: 40 nM |
| Gαq K311A (from UniProt P21279 7-359) (natural protein) | – | 150 | – |
| murine Gαq (residues 7–359), biotinylated for bead binding (from UniProt P21279 7-359) (natural protein) | – | 59 | EC50 of Gαq-stimulated PIP2 hydrolysis ([3H]-IP3 release from liposomes) (PLCβ3-Δ892 T652E (human)): 250 nM |
